The values that follow come from patent US20250043028A1 (Hoffmann-La Roche, published 2025).

Test [1] deals with T1, human CEA expressed on tumor cells (LS-174T, MKN-45, MC38-huCEA) (human, UniProt P06731 35-685).
T1 sequence (looked up): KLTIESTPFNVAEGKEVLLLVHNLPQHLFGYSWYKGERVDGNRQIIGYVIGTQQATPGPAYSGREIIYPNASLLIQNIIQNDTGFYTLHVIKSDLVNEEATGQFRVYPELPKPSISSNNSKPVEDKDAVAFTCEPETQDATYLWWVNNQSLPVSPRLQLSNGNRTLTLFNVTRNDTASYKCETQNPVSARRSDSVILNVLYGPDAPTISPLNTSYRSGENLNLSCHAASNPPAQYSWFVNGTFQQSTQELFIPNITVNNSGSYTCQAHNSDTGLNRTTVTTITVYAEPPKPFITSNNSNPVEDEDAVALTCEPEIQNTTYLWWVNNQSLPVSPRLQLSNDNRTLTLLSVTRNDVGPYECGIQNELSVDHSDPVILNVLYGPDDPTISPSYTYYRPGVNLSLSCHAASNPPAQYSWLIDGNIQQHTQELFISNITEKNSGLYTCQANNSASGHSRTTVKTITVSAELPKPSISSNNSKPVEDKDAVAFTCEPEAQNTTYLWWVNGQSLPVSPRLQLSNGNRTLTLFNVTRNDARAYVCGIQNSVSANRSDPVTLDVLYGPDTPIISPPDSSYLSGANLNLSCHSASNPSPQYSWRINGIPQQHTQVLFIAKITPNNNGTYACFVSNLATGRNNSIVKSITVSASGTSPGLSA
Briefly: cell-based or functional assay.

The target in test [2] is T2, human MCSP expressed on tumor cells (Colo-38, WM266-4, MV-3) (human, UniProt Q6UVK1 30-2322). Briefly: cell-based or functional assay.
T2 sequence (Q6UVK1 30-2322): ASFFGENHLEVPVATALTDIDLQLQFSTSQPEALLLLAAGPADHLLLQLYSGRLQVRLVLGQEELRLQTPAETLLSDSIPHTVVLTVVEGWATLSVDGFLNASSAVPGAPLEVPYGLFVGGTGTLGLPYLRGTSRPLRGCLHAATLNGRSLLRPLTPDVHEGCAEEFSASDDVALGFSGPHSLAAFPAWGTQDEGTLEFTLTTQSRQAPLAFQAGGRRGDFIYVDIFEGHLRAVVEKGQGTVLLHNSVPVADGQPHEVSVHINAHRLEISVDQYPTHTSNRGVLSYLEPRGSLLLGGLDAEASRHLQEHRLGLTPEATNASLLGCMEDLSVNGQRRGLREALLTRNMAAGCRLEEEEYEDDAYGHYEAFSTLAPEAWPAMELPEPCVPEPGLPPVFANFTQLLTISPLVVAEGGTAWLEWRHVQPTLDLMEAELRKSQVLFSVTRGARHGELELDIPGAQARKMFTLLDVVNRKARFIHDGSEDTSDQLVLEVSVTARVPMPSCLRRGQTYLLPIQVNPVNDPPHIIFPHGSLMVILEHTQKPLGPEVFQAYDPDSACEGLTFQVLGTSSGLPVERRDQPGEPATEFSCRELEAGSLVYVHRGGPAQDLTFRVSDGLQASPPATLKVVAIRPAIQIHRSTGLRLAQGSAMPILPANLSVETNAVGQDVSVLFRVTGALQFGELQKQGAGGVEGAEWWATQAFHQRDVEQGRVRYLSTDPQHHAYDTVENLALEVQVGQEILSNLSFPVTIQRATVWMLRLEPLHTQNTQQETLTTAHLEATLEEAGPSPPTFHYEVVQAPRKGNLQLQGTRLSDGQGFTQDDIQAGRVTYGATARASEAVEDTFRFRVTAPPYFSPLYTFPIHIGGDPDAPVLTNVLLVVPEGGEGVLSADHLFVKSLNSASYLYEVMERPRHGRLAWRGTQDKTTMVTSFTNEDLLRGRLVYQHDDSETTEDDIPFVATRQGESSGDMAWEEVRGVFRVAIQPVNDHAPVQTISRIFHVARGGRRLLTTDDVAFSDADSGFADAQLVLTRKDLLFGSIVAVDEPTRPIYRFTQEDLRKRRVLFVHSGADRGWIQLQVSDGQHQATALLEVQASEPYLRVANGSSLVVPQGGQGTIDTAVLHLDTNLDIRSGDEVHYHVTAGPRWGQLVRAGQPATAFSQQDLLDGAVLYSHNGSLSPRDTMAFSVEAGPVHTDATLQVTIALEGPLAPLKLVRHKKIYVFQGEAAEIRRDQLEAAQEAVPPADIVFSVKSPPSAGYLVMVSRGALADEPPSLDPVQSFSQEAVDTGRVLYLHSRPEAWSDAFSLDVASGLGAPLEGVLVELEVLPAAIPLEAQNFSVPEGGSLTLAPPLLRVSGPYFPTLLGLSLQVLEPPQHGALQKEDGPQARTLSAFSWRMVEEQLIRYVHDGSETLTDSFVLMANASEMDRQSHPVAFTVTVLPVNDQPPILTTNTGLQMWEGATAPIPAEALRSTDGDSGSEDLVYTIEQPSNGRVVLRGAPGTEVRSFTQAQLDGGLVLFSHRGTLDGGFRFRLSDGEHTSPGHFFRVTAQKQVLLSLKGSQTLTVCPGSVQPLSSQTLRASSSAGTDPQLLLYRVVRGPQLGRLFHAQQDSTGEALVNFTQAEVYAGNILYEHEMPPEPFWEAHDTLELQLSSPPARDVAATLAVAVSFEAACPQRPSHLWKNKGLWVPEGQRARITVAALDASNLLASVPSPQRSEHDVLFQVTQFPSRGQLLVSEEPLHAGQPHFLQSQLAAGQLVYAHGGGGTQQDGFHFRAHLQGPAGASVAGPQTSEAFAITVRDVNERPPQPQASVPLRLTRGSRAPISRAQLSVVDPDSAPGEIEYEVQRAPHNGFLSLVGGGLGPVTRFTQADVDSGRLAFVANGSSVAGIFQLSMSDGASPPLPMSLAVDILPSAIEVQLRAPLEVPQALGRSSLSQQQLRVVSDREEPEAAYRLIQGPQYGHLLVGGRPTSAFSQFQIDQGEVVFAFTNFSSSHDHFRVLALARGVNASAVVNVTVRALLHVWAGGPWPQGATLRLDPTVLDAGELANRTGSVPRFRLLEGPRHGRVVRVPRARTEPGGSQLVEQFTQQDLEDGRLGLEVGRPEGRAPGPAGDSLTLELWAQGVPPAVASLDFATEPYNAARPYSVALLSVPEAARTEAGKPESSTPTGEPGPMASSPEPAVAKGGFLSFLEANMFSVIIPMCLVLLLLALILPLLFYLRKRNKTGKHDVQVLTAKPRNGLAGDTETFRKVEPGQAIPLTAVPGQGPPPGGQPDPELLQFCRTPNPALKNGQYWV
In test [3] the target is T2, human MCSP expressed on tumor cells …. Briefly: flow cytometry on WM266-4 cells.
Test [4] has the same target. Briefly: cell-based or functional assay. This is another data set of the same source.
The target of test [5] is T3, human CD3 expressed on Jurkat cells (human, UniProt P07766 23-207).
T3 construct: CD3 as part of the T cell receptor complex on Jurkat cells; also called huCD3; human CD3 on cells
T3 sequence (P07766 23-207 limits assumed): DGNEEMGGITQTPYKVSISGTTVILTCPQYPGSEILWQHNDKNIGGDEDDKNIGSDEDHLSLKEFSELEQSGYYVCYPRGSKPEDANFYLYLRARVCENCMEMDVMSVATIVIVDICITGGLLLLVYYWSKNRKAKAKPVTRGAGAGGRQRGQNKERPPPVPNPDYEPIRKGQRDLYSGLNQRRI
Briefly: flow cytometry on Jurkat cells. Background: A flow cytometer gives signals particle by particle.

B1: “1+1 IgG Crossfab light chain (LC) fusion” (CH1A1A/V9) (anti-CEA/anti-huCD3) (bispecific antibody)
chain 1: DIQMTQSPSSLSASVGDRVTITCRASQDIRNYLNWYQQKPGKAPKLLIYYTSRLESGVPSRFSGSGSGTDYTLTISSLQPEDFATYYCQQGNTLPWTFGQGTKVEIKSSASTKGPSVFPLAPSSKSTSGGTAALGCLVKDYFPEPVTVSWNSGALTSGVHTFPAVLQSSGLYSLSSVVTVPSSSLGTQTYICNVNHKPSNTKVDKKVEPKSC
chain 2: DIQMTQSPSSLSASVGDRVTITCKASAAVGTYVAWYQQKPGKAPKLLIYSASYRKRGVPSRFSGSGSGTDFTLTISSLQPEDFATYYCHQYYTYPLFTFGQGTKLEIKRTVAAPSVFIFPPSDEQLKSGTASVVCLLNNFYPREAKVQWKVDNALQSGNSQESVTEQDSKDSTYSLSSTLTLSKADYEKHKVYACEVTHQGLSSPVTKSFNRGECGGGGSGGGGSGGGGSGGGGSEVQLVESGGGLVQPGGSLRLSCAASGYSFTGYTMNWVRQAPGKGLEWVALINPYKGVSTYNQKFKDRFTISVDKSKNTAYLQMNSLRAEDTAVYYCARSGYYGDSDWYFDVWGQGTLVTVSSASVAAPSVFIFPPSDEQLKSGTASVVCLLNNFYPREAKVQWKVDNALQSGNSQESVTEQDSKDSTYSLSSTLTLSKADYEKHKVYACEVTHQGLSSPVTKSFNRGEC
chain 3: not shown
chain 4: DKTHTCPPCPAPEAAGGPSVFLFPPKPKDTLMISRTPEVTCVVVDVSHEDPEVKFNWYVDGVEVHNAKTKPREEQYNSTYRVVSVLTVLHQDWLNGKEYKCKVSNKALGAPIEKTISKAKGQPREPQVCTLPPSRDELTKNQVSLSCAVKGFYPSDIAVEWESNGQPENNYKTTPPVLDSDGSFFLVSKLTVDKSRWQQGNVFSCSVMHEALHNHYTQKSLSLSPGK
On to B1, for which, in test [1], the “EC50 of apoptosis induction (LDH release) in LS-174T cells, human PBMCs, E:T 10:1, 28 h” value was 1.56 nM; the “EC50 of apoptosis induction (LDH release) in MC38-huCEA cells, human PBMCs, E:T 10:1, 24 h” value was around 3.2 nM; the “EC50 of apoptosis induction (LDH release) in MKN-45 cells, human PBMCs, E:T 10:1, 28 h” value is 0.213 nM.

B2: “2+1 IgG Crossfab”; CL/CH1 exchange (M4-3 ML2/V9) (anti-MCSP/anti-huCD3) (bispecific antibody)
chain 1: B1 chain 1
chain 2: not shown
chain 3: QVQLQESGPGLVKPSQTLSLTCTVSGGSITSGYYWNWIRQHPGKGLEWIGYITYDGSNNYNPSLKSRVTISRDTSKNQFSLKLSSVTAADTAVYYCADFDYWGQGTLVTVSSASTKGPSVFPLAPSSKSTSGGTAALGCLVKDYFPEPVTVSWNSGALTSGVHTFPAVLQSSGLYSLSSVVTVPSSSLGTQTYICNVNHKPSNTKVDKKVEPKSCDKTHTCPPCPAPEAAGGPSVFLFPPKPKDTLMISRTPEVTCVVVDVSHEDPEVKFNWYVDGVEVHNAKTKPREEQYNSTYRVVSVLTVLHQDWLNGKEYKCKVSNKALGAPIEKTISKAKGQPREPQVCTLPPSRDELTKNQVSLSCAVKGFYPSDIAVEWESNGQPENNYKTTPPVLDSDGSFFLVSKLTVDKSRWQQGNVFSCSVMHEALHNHYTQKSLSLSPGK
chain 4: not shown
Regarding B2, in test [2], the “EC50 of killing (LDH release) of MV-3 cells, human PBMCs, E:T 10:1, 27 h” value is around 0.0117 nM and the “EC50 of killing (LDH release) of WM266-4 cells, human PBMCs, E:T 10:1, 26 h” value was 0.0129 nM.

B3: “1+1 IgG Crossfab”; VL/VH exchange (LC007/V9) (anti-MCSP/anti-huCD3) (bispecific antibody)
chain 1: DIVLTQSPSSLSASLGDRVTISCSASQGIRNYLNWYQQRPDGTVKLLIYYTSSLHSGVPSRFSGSGSGTDYSLTISNLEPEDIATYYCQQYSKLPWTFGGGTKLEIKRTVAAPSVFIFPPSDEQLKSGTASVVCLLNNFYPREAKVQWKVDNALQSGNSQESVTEQDSKDSTYSLSSTLTLSKADYEKHKVYACEVTHQGLSSPVTKSFNRGEC
chain 2: DIQMTQSPSSLSASVGDRVTITCRASQDIRNYLNWYQQKPGKAPKLLIYYTSRLESGVPSRFSGSGSGTDYTLTISSLQPEDFATYYCQQGNTLPWTFGQGTKVEIKSSASTKGPSVFPLAPSSKSTSGGTAALGCLVKDYFPEPVTVSWNSGALTSGVHTFPAVLQSSGLYSLSSVVTVPSSSLGTQTYICNVNHKPSNTKVDKKVEPKSCGGGGSGGGGSEVQLQESGPGLVKPSQSLSLTCSVTGYSITSGYYWNWIRQFPGNKLEWMGYITYDGSNNYNPSLKNRISITRDTSKNQFFLKLNSVTTEDTATYYCADFDYWGQGTTLTVSSASTKGPSVFPLAPSSKSTSGGTAALGCLVKDYFPEPVTVSWNSGALTSGVHTFPAVLQSSGLYSLSSVVTVPSSSLGTQTYICNVNHKPSNTKVDKKVEPKSCDKTHTCPPCPAPEAAGGPSVFLFPPKPKDTLMISRTPEVTCVVVDVSHEDPEVKFNWYVDGVEVHNAKTKPREEQYNSTYRVVSVLTVLHQDWLNGKEYKCKVSNKALGAPIEKTISKAKGQPREPQVCTLPPSRDELTKNQVSLSCAVKGFYPSDIAVEWESNGQPENNYKTTPPVLDSDGSFFLVSKLTVDKSRWQQGNVFSCSVMHEALHNHYTQKSLSLSPGK
chain 3: EVQLVESGGGLVQPGGSLRLSCAASGYSFTGYTMNWVRQAPGKGLEWVALINPYKGVSTYNQKFKDRFTISVDKSKNTAYLQMNSLRAEDTAVYYCARSGYYGDSDWYFDVWGQGTLVTVSSASVAAPSVFIFPPSDEQLKSGTASVVCLLNNFYPREAKVQWKVDNALQSGNSQESVTEQDSKDSTYSLSSTLTLSKADYEKHKVYACEVTHQGLSSPVTKSFNRGEC
chain 4: not shown
As to B3, in test [2], the “EC50 of killing (LDH release) of MV-3 cells, human PBMCs, E:T 10:1, 21 h” value was found to be 0.0409 nM and the “EC50 of killing (LDH release) of WM266-4 cells, human PBMCs, E:T 10:1, 21 h” value came out at 0.0284 nM.

B4: “2+1 IgG Crossfab”; CL/CH1 exchange (LC007/anti-CD3) (anti-MCSP/anti-huCD3) (bispecific antibody)
chain 1: B3 chain 1
chain 2: EVQLQESGPGLVKPSQSLSLTCSVTGYSITSGYYWNWIRQFPGNKLEWMGYITYDGSNNYNPSLKNRISITRDTSKNQFFLKLNSVTTEDTATYYCADFDYWGQGTTLTVSSASTKGPSVFPLAPSSKSTSGGTAALGCLVKDYFPEPVTVSWNSGALTSGVHTFPAVLQSSGLYSLSSVVTVPSSSLGTQTYICNVNHKPSNTKVDKKVEPKSCDKTHTCPPCPAPEAAGGPSVFLFPPKPKDTLMISRTPEVTCVVVDVSHEDPEVKFNWYVDGVEVHNAKTKPREEQYNSTYRVVSVLTVLHQDWLNGKEYKCKVSNKALGAPIEKTISKAKGQPREPQVCTLPPSRDELTKNQVSLSCAVKGFYPSDIAVEWESNGQPENNYKTTPPVLDSDGSFFLVSKLTVDKSRWQQGNVFSCSVMHEALHNHYTQKSLSLSPGK
chain 3: QAVVTQESALTTSPGETVTLTCRSSTGAVTTSNYANWVQEKPDHLFTGLIGGTNKRAPGVPARFSGSLIGDKAALTITGAQTEDEAIYFCALWYSNLWVFGGGTKLTVLSSASTKGPSVFPLAPSSKSTSGGTAALGCLVKDYFPEPVTVSWNSGALTSGVHTFPAVLQSSGLYSLSSVVTVPSSSLGTQTYICNVNHKPSNTKVDKKVEPKSC
chain 4: not shown
As to B4, the EC50 (in general, the concentration at which the effect is half-maximal) was 3.1 nM in test [3] and 10.3 nM in test [5]. In test [4], the “EC50 [pM] of T cell-mediated killing (LDH release) of MV-3 cells, human PBMCs, E:T 10:1, about 24 h” value is 11 pM. For the same molecule, the “EC50 [pM] of T cell-mediated killing (LDH release) of WM266-4 cells, human PBMCs, E:T 10:1, about 24 h” value in test [4] was 11.3 pM.

B5: “2+1 IgG Crossfab”; VL/VH exchange (M4-3 ML2/V9) (anti-MCSP/anti-huCD3) (bispecific antibody)
chain 1: B3 chain 3
chain 2: not shown
chain 3: not shown
chain 4: B2 chain 3
On to B5, for which, in test [2], the “EC50 of killing (LDH release) of MV-3 cells, human PBMCs, E:T 10:1, 27 h” value is around 0.0822 nM and the “EC50 of killing (LDH release) of WM266-4 cells, human PBMCs, E:T 10:1, 26 h” value came to 0.0168 nM.

B6: “1+1 CrossMab”; CL/CH1 exchange (LC007/V9) (anti-MCSP/anti-huCD3) (bispecific antibody)
chain 1: B3 chain 1
chain 2: B4 chain 2
chain 3: B1 chain 1
chain 4: not shown
For B6, in test [2], the “EC50 of killing (LDH release) of MV-3 cells, human PBMCs, E:T 10:1, 21 h” value was 0.0884 nM and the “EC50 of killing (LDH release) of WM266-4 cells, human PBMCs, E:T 10:1, 21 h” value is 0.0539 nM.

B7: “2+1 IgG Crossfab, inverted”; CL/CH1 exchange (LC007/V9) (anti-MCSP/anti-huCD3) (bispecific antibody)
chain 1: B3 chain 1
chain 2: B4 chain 2
chain 3: B1 chain 1
chain 4: not shown
In turn, B7 gave an EC50 in test [3] of 0.57 nM. In test [4], the “EC50 [pM] of T cell-mediated killing (LDH release) of MV-3 cells, human PBMCs, E:T 10:1, about 24 h” value was determined as 4.1 pM and the “EC50 [pM] of T cell-mediated killing (LDH release) of WM266-4 cells, human PBMCs, E:T 10:1, about 24 h” value came to 3.7 pM. A half-maximal effect in test [5] (EC50) was put at 6.1 nM.
